Tests used:
Rv3802 = biological target: T1, Rv3802 (Mycobacterium tuberculosis, UniProt O53581); test: […]; TLC of […]-palmitoyl-CoA hydrolysis; assay type: biochemical
T1 construct: gene cut6

[1] = system: CCCCCCCCCC(=O)SCCNC(=O)CCNC(=O)[C@H](O)C(C)(C)COP(=O)(O)OP(=O)(O)OC[C@H]1O[C@@H](n2cnc3c(N)ncnc32)[C@H](O)[C@@H]1OP(=O)(O)O; test: purified protein
[2] = system: CCCCCCCCCCCCCCCC(=O)SCCNC(=O)CCNC(=O)[C@H](O)C(C)(C)COP(=O)(O)OP(=O)(O)OC[C@H]1O[C@@H](n2cnc3c(N)ncnc32)[C@H](O)[C@@H]1OP(=O)(O)O; test: purified protein

T1 sequence (O53581 37-336): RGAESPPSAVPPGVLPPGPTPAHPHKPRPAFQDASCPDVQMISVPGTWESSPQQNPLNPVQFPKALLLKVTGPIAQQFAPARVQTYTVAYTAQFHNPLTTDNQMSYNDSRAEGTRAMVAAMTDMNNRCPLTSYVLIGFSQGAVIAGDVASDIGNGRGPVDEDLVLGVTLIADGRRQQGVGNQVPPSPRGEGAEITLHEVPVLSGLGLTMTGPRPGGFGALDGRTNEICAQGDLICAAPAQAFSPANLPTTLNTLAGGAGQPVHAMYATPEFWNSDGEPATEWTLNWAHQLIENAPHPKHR

Compound	Ki (Rv3802) [nM]	Km [1] [µM]	kcat [1] [s⁻¹]	kcat/Km [1] [M⁻¹ s⁻¹]	Km [2] [µM]
CCCCCCCCCCC[C@@H](C[C@@H]1OC(=O)[C@H]1CCCCCC)OC(=O)[C@H](CC(C)C)NC=O [THL, tetrahydrolipstatin]	5				
Rv3802 (Mycobacterium tuberculosis H37Rv)		2280	0.0845 ± 0.0253	37 ± 11.1	17

Reference: publication PMC2625445, “Mycobacterium tuberculosis Rv3802c Encodes a Phospholipase/Thioesterase and Is Inhibited by the Antimycobacterial Agent Tetrahydrolipstatin” (PLoS ONE, 2009)
